Results taken from patent US20250250357A1.

Legend:
[1] = biological target: human MSLN full-length protein (NCBI: AAH09272.1) on stably transfected CHO-K1 or HEK293T cells (human) (UniProt Q13421); experiment: FACS on HEK293T-hMSLN-2A4 cells; secondary antibody control 1
[2] = biological target: human MSLN full-length protein (NCBI: AAH09272.1) on stably transfected CHO-K1 or HEK293T cells (human) (UniProt Q13421); experiment: FACS on CHO-K1-hMSLN clone 2D11, overlay with secondary antibody only
[3] = biological target: monkey MSLN full-length protein (NCBI: XP_028696439.1) on HEK293T cells (monkey); experiment: FACS on HEK293T-monkey MSLN cells; antibody 100 nM
[4] = biological target: monkey MSLN full-length protein (NCBI: XP_028696439.1) on HEK293T cells (monkey); experiment: FACS on HEK293T-monkey MSLN cells; antibody 0.8 nM
[5] = biological target: monkey MSLN full-length protein (NCBI: XP_028696439.1) on HEK293T cells (monkey); experiment: FACS on HEK293T-monkey MSLN cells; antibody 0.00128 nM
[6] = biological target: human MSLN full-length protein (NCBI: AAH09272.1) on stably transfected CHO-K1 or HEK293T cells (human) (UniProt Q13421); experiment: FACS on CHO-K1-hMSLN clone 2C5, overlay with secondary antibody only
[7] = biological target: monkey MSLN full-length protein (NCBI: XP_028696439.1) on HEK293T cells (monkey); experiment: FACS on HEK293T-monkey MSLN cells; antibody 0.032 nM
[8] = biological target: human MSLN full-length protein (NCBI: AAH09272.1) on stably transfected CHO-K1 or HEK293T cells (human) (UniProt Q13421); experiment: FACS on CHO-K1-hMSLN clone 2C8, overlay with secondary antibody only
[9] = biological target: monkey MSLN full-length protein (NCBI: XP_028696439.1) on HEK293T cells (monkey); experiment: FACS on HEK293T-monkey MSLN cells; antibody […]
[10] = biological target: monkey MSLN full-length protein (NCBI: XP_028696439.1) on HEK293T cells (monkey); experiment: FACS on HEK293T-monkey MSLN cells; antibody 20 nM
[11] = biological target: human MSLN full-length protein (NCBI: AAH09272.1) on stably transfected CHO-K1 or HEK293T cells (human) (UniProt Q13421); experiment: FACS on HEK293T-hMSLN-B8 cells; secondary antibody control 1
[12] = biological target: human MSLN full-length protein (NCBI: AAH09272.1) on stably transfected CHO-K1 or HEK293T cells (human) (UniProt Q13421); experiment: FACS on CHO-K1-hMSLN-2C8 cells; antibody 4 nM
[13] = biological target: human MSLN full-length protein (NCBI: AAH09272.1) on stably transfected CHO-K1 or HEK293T cells (human) (UniProt Q13421); experiment: FACS on CHO-K1-hMSLN-2D11 cells; secondary antibody control 37
[14] = biological target: human MSLN full-length protein (NCBI: AAH09272.1) on stably transfected CHO-K1 or HEK293T cells (human) (UniProt Q13421); experiment: FACS on CHO-K1-hMSLN-2C8 cells; antibody 20 nM
[15] = biological target: human MSLN full-length protein (NCBI: AAH09272.1) on stably transfected CHO-K1 or HEK293T cells (human) (UniProt Q13421); experiment: FACS on CHO-K1-hMSLN-2C5 cells; secondary antibody control 37
[16] = biological target: human MSLN full-length protein (NCBI: AAH09272.1) on stably transfected CHO-K1 or HEK293T cells (human) (UniProt Q13421); experiment: FACS on CHO-K1-hMSLN-2C8 cells; antibody 0.032 nM
[17] = biological target: human MSLN full-length protein (NCBI: AAH09272.1) on stably transfected CHO-K1 or HEK293T cells (human) (UniProt Q13421); experiment: FACS on CHO-K1-hMSLN-2C8 cells; antibody 0.00128 nM
[18] = biological target: human MSLN full-length protein (NCBI: AAH09272.1) on stably transfected CHO-K1 or HEK293T cells (human) (UniProt Q13421); experiment: FACS on CHO-K1-hMSLN-2C8 cells; antibody […]
[19] = biological target: human MSLN full-length protein (NCBI: AAH09272.1) on stably transfected CHO-K1 or HEK293T cells (human) (UniProt Q13421); experiment: FACS on CHO-K1-hMSLN-2C8 cells; antibody 100 nM
[20] = biological target: human MSLN full-length protein (NCBI: AAH09272.1) on stably transfected CHO-K1 or HEK293T cells (human) (UniProt Q13421); experiment: FACS on CHO-K1-hMSLN-2C8 cells; antibody 0.0064 nM
[21] = biological target: human MSLN full-length protein (NCBI: AAH09272.1) on stably transfected CHO-K1 or HEK293T cells (human) (UniProt Q13421); experiment: FACS on CHO-K1-hMSLN-2C8 cells; antibody 0.8 nM
[22] = biological target: human MSLN full-length protein (NCBI: AAH09272.1) on stably transfected CHO-K1 or HEK293T cells (human) (UniProt Q13421); experiment: FACS on HEK293T-hMSLN-2A7 cells; secondary antibody control 1
[23] = biological target: monkey MSLN full-length protein (NCBI: XP_028696439.1) on HEK293T cells (monkey); experiment: FACS on HEK293T-monkey MSLN cells; antibody 0.0064 nM
[24] = biological target: human MSLN full-length protein (NCBI: AAH09272.1) on stably transfected CHO-K1 or HEK293T cells (human) (UniProt Q13421); experiment: FACS on CHO-K1-hMSLN-2C8 cells; secondary antibody control 37
[25] = biological target: monkey MSLN full-length protein (NCBI: XP_028696439.1) on HEK293T cells (monkey); experiment: FACS on HEK293T-monkey MSLN cells; antibody 4 nM

B1: Tab020 (YP223, rabbitIgG1) (antibody, V domains shown)
VH: QEQLEESGGDLVQPEGSLTLTCKASGLDFSSSYWICWVRQAPGKGLEWIGCRHTFTANTWSASWVNGRFTISRSTSLGTVDLKMTSLTAADTATYFCARDESNNDGWDFKLWGPGTLVTVSS
VL: AYDMTQTPASVSAAVGGTVTIKCQASQSISNYLAWYQQKPGQPPKLLIYQASTLAPGVSSRFKGSGSGTEFTLTISGVECADAATYYCQQGYTSSNVENVFGGGTGVVVGD
With B1 the Mean fluorescence intensity of cells [1] was 15400, the percent of cells in the APC-A+ gate [2] was 100% and the FACS fluorescence intensity [3] was 126. For the same binder, the FACS fluorescence intensity [4] was 88, the FACS fluorescence intensity [5] was 85 and the percent of cells in the APC-A+ gate [6] was 100%. The FACS fluorescence intensity [7] was 85, the percent of cells in the APC-A+ gate [8] was 99.4% and the FACS fluorescence intensity [9] was 86. The FACS fluorescence intensity [10] was 100, the Mean fluorescence intensity of cells [11] was 24400 and the FACS fluorescence intensity [12] was 9000. The Mean fluorescence intensity of cells [13] was 218000, the FACS fluorescence intensity [14] was 15400 and the Mean fluorescence intensity of cells [15] was 206000. The FACS fluorescence intensity [16] was 206, the FACS fluorescence intensity [17] was 75 and the FACS fluorescence intensity [18] was 593. For the same binder, the FACS fluorescence intensity [19] was 15300, the FACS fluorescence intensity [20] was 96 and the FACS fluorescence intensity [21] was 2290. For the same binder, the Mean fluorescence intensity of cells [22] was 6580, the FACS fluorescence intensity [23] was 85 and the Mean fluorescence intensity of cells [24] was 234000. For the same binder, the FACS fluorescence intensity [25] was 90.
